Assay [1] has as its target CEACAM1 N-도메인 (CEACAM1 N-domain, residues 35-141) (human) (UniProt P13688). Nature of the assay: X-ray crystal structure of the Fab and N-domain complex.
The target in assay [2] is T1, hCEACAM1 (R&D Systems, CAT. NO. 2244-CM) (human, UniProt P13688 35-428).
T1 construct: not shown: a His tag is implied by the use of Anti-His (His1K) biosensors
T1 sequence: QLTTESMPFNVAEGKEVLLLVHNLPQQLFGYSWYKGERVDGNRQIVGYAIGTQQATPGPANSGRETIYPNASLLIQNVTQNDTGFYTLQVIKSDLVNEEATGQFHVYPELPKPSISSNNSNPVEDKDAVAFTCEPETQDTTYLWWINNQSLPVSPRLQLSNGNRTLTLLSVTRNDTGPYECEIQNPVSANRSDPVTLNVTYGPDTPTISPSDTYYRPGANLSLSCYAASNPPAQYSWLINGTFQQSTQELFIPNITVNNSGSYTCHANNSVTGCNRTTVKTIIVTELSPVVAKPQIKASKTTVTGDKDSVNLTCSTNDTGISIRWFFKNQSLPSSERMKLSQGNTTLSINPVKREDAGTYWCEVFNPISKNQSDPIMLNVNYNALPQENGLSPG
Nature of the assay: BLI (Octet QKe); sentence that introduces Table 5, differs from the table cell.

For assay [3], the target named is T1, hCEACAM1 (R&D Systems, CAT. NO. 2244-CM). The experiment in a line: BLI (Octet QKe); Anti-His (His1K) biosensors, hCEACAM1 (R&D 2244-CM), antibody at 6.25-400 nM. Background: In BLI a coated tip is dipped into the sample, and binding shifts an interference pattern.
For assay [4] the target is unchanged. Nature of the assay: not named in this sentence (BLI in Example 4); differs from the table cell.

B1: 항-CEACAM1 항체의 Fab (Fab of the anti-CEACAM1 antibody, papain fragment of the IgG1-type antibody) (Fab, V domains shown)
VH: EVQLLESGGGLVQPGGSLRLSCAASGFTFSNYAMSWVRQAPGKGLEWVSVISHGGGSIYYADSVKGRLTISRDNSKNTLYLQMNSLRAEDTAVYYCARDPTKGYAPTFDYWGQGTLVTVSS
VL: QSVLTQPPSASGTPGQRVTISCSGSSSNIGNNYVSWYQQLPGTAPKLLIYADSRRPSGVPDRFSGSKSGTSASLAISGLRSEDEADYYCGAWDLSLNGYVFGGGTKLTVLG
In assay [1], B1 had a 항원-항체 결합의 전체 표면적 of 792 Å2.

B2: 항-CEACAM1 항체 (anti-CEACAM1 antibody, IgG4 type) (antibody, V domains shown)
VH: B1 VH
VL: B1 VL
notes: also called 일 실시예의 항-CEACAM1 항체
For the molecule B2, binding in assay [2] was characterised by a dissociation constant (Kd) of 3.9 nM. In assay [3], this molecule showed a Kd of 3.39 nM, a koff of 0.000567 s⁻¹ and a kon of 163000 M⁻¹ s⁻¹. Further, the Kd in assay [4] was 3.36 nM.

By Kd is commonly meant the concentration at which binding is half-saturated. A higher Kd goes with a looser complex. A word on the koff: it is the first-order rate constant of dissociation. Read a low koff as slow dissociation. The term kon denotes a measure of how fast the partners come together. Low values mean slow association, high ones fast association.

Values taken from KR20210154940A (dated 2021).
